# B1: IQ calmodulin-binding motif-containing protein 1 (Homo sapiens), Q15051 (parent)
# chain: MKPTGTDPRILSIAAEVAKSPEQNVPVILLKLKEIINITPLGSSELKKIKQDIYCYDLIQYCLLVLSQDYSRIQGGWTTISQLTQILSHCCVGLEPGEDAEEFYNELLPSAAENFLVLGRQLQTCFINAAKAEEKDELLHFFQIVTDSLFWLLGGHVELIQNVLQSDHFLHLLQADNVQIGSAVMMMLQNILQINSGDLLRIGRKALYSILDEVIFKLFSTPSPVIRSTATKLLLLMAESHQEILILLRQSTCYKGLRRLLSKQETGTEFSQELRQLVGLLSPMVYQEVEEQKLHQAACLIQAYWKGFQTRKRLKKLPSAVIALQRSFRSKRSKMLLEINRQKEEEDLKLQLQLQRQRAMRLSRELQLSMLEIVHPGQVEKHYREMEEKSALIIQKHWRGYRERKNFHQQRQSLIEYKAAVTLQRAALKFLAKCRKKKKLFAPWRGLQELTDARRVELKKRVDDYVRRHLGSPMSDVVSRELHAQAQERLQHYFMGRALEERAQQHREALIAQISTNVEQLMKAPSLKEAEGKEPELFLSRSRPVAAKAKQAHLTTLKHIQAPWWKKLGEESGDEIDVPKDELSIELENLFIGGTKPP
# Variants of: B1
# Settings: with ce290_human CEP290, O15078
# ce290_human CEP290, O15078, sequence (O15078 whole entry): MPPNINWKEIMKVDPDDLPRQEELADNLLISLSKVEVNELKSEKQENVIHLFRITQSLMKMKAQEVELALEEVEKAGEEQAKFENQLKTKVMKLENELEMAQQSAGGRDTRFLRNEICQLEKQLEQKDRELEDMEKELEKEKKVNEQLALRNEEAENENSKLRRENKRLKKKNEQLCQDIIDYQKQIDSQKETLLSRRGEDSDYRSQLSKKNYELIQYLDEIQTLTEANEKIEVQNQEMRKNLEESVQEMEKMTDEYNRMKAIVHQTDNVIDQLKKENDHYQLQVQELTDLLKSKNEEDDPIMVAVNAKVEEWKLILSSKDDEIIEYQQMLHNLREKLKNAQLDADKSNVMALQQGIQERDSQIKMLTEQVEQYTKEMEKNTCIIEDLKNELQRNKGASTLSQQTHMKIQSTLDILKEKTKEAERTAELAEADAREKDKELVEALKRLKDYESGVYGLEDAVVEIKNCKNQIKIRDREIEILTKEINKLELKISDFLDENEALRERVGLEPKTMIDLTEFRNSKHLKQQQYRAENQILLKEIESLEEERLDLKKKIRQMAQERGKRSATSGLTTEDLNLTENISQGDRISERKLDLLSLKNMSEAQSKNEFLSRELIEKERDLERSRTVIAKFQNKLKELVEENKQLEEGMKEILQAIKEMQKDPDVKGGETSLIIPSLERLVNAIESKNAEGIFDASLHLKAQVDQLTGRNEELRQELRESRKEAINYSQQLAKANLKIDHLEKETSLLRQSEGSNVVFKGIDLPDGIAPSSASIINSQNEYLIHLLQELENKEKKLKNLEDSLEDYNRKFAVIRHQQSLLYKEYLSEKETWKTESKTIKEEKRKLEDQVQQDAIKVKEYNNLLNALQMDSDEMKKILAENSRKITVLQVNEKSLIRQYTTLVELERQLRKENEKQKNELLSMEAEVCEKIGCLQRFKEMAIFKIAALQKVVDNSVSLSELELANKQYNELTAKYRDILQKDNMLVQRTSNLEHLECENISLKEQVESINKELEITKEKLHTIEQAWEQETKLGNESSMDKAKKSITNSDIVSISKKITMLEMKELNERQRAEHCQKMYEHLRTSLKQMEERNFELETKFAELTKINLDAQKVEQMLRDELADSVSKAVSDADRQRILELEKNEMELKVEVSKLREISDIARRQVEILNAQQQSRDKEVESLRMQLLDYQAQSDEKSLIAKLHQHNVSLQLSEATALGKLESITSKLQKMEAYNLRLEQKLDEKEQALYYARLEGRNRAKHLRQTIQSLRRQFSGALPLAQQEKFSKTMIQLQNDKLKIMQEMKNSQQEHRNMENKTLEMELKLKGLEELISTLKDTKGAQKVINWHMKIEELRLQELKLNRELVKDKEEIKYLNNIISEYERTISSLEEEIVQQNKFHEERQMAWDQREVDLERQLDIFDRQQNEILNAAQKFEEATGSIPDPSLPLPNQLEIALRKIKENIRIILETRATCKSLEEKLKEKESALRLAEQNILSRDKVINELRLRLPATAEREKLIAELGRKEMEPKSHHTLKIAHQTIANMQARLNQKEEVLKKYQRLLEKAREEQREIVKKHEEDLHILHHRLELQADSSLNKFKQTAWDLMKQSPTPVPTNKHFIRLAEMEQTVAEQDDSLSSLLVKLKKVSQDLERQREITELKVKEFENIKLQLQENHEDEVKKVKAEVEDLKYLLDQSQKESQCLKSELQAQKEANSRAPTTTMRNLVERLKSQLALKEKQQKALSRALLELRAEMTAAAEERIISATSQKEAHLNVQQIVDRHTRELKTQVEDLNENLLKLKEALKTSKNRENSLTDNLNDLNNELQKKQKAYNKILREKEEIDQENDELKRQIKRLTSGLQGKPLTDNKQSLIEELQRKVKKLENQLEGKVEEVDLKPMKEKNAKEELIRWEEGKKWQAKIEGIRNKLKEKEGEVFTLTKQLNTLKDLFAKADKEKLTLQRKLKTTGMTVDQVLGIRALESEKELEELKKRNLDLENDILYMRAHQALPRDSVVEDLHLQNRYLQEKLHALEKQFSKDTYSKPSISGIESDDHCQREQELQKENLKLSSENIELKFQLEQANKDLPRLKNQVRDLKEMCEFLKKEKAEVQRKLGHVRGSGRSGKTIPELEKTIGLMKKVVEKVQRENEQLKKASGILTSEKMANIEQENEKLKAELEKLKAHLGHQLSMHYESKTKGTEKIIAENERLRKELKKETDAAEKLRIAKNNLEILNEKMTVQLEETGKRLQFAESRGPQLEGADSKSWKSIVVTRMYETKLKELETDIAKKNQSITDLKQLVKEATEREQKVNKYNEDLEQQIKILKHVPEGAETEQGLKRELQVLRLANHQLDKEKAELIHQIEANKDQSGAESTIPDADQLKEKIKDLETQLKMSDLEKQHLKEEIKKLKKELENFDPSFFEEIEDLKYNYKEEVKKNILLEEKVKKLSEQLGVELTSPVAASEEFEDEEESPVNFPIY
row,Variant,effect of a mutation on the interaction
1,MKPTGTDPRILSIAAEVAKSPEQNVPVILLKLKEIINITPLGSSELKKIKQDIYCYDLIQYCLLVLSQDYSRIQGGWTTISQLTQILSHCCVGLEPGEDAEEFYNELLPSAAENFLVLGRQLQTCFINAAKAEEKDELLHFFQIVTDSLFWLLGGHVELIQNVLQSDHFLHLLQADNVQIGSAVMMMLQNILQINSGDLLRIGRKALYSILDEVIFKLFSTPSPVIRSTATKLLLLMAESHQEILILLRQSTCYKGLRRLLSKQETGTEFSQELRQLVGLLSPMVYQEVEEQKLHQAACLIQAYWKGFQTRKRLKKLPSAVIALQRSFRSKRSKMLLEINRQKEEEDLKLQLQLQRQRAMRLSRELQLSMLEIVHPGQVEKHYREMEEKSALIIQKHWRGYRERKNFHQQRQSLIEYKAAVTLQRAALKFLAKCRKKKKLFAPWRGLQELTDARRVELKKRVDDYVRRHLGSPMSDVVSRELHAQAQERLQHYFMGRALEERAQQHREALIAQISTNVEQLMKAPSLKEAEGKEPELFLSRSRPVAAKKKQAHLTTLKHIQAPWWKKLGEESGDEIDVPKDELSIELENLFIGGTKPP [A549K],disrupting interaction

# — IntAct's records for PubMed 23446637
